Measurements taken from PMC8683085, “Serine ADP-ribosylation marks nucleosomes for ALC1-dependent chromatin remodeling” (eLife, 2021).

Assays:
[1] = target: H2BS6ADPr1 nucleosome, P68431
[2] = target: PARP1 (full-length, N-terminal 6xHis-tag) (UniProt P09874)
[3] = target: PARP1 (full-length, N-terminal 6xHis-tag) (UniProt P09874); remark: listed apart in the source

Sequence of PARP1 (full-length, N-terminal 6xHis-tag) (P09874 whole entry): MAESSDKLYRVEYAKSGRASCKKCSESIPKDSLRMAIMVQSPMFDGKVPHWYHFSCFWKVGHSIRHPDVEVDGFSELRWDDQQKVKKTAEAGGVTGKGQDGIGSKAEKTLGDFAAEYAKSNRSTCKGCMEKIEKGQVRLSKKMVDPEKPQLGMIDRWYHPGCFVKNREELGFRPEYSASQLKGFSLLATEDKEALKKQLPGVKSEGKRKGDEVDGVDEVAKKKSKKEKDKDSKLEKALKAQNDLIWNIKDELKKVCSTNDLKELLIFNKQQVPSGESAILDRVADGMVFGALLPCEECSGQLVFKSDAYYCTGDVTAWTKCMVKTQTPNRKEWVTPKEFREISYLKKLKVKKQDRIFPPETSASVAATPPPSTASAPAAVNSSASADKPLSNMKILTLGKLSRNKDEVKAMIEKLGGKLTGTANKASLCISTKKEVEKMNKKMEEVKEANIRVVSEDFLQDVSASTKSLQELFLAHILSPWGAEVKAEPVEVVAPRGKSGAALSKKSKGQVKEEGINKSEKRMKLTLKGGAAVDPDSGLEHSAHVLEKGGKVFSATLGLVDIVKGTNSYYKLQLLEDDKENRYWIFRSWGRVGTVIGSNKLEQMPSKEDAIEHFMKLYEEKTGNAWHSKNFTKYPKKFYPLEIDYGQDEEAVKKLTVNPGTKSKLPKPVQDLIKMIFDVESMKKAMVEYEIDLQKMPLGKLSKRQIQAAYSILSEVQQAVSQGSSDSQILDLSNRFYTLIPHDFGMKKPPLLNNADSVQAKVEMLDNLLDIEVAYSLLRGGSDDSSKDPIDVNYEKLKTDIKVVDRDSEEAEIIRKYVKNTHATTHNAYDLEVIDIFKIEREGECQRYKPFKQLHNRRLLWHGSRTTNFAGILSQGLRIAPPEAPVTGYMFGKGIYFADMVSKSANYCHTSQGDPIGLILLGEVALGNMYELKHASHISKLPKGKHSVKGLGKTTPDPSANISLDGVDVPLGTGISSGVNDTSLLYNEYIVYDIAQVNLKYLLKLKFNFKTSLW

Row | ALC1 nucleosome remodeling rate constant (REA assay) [1] [min⁻¹] | inhibition of PARP1-catalyzed ADP-ribose polymerization from the H3S10ADPr1 peptide (RP-HPLC); HPF1 concentration at 50% inhibition [2] [µM] | share of mono-ADP-ribosylated H3 (1-20) peptide among the products of the PARP1 ADPr reaction (RP-HPLC), HPF1 from 5 μM to 100 μM [3] [%] | Binder
1 | < 0.0003 | – | – | ALC1 (full-length, 6xHis-1xFLAG-ALC1), Q86WJ1 1-897 (enzyme, here or on the partner: mono-ADP-ribose on S6) MERAGATSRGGQAPGFLLRLHTEGRAEAARVQEQDLRQWGLTGIHLRSYQLEGVNWLAQRFHCQNGCILGDEMGLGKTCQTIALFIYLAGRLNDEGPFLILCPLSVLSNWKEEMQRFAPGLSCVTYAGDKEERACLQQDLKQESRFHVLLTTYEICLKDASFLKSFPWSVLVVDEAHRLKNQSSLLHKTLSEFSVVFSLLLTGTPIQNSLQELYSLLSFVEPDLFSKEEVGDFIQRYQDIEKESESASELHKLLQPFLLRRVKAEVATELPKKTEVVIYHGMSALQKKYYKAILMKDLDAFENETAKKVKLQNILSQLRKCVDHPYLFDGVEPEPFEVGDHLTEASGKLHLLDKLLAFLYSGGHRVLLFSQMTQMLDILQDYMDYRGYSYERVDGSVRGEERHLAIKNFGQQPIFVFLLSTRAGGVGMNLTAADTVIFVDSDFNPQNDLQAAARAHRIGQNKSVKVIRLIGRDTVEEIVYRKAASKLQLTNMIIEGGHFTLGAQKPAADADLQLSEILKFGLDKLLASEGSTMDEIDLESILGETKDGQWVSDALPAAEGGSRDQEEGKNHMYLFEGKDYSKEPSKEDRKSFEQLVNLQKTLLEKASQEGRSLRNKGSVLIPGLVEGSTKRKRVLSPEELEDRQKKRQEAAAKRRRLIEEKKRQKEEAEHKKKMAWWESNNYQSFCLPSEESEPEDLENGEESSAELDYQDPDATSLKYVSGDVTHPQAGAEDALIVHCVDDSGHWGRGGLFTALEKRSAEPRKIYELAGKMKDLSLGGVLLFPVDDKESRNKGQDLLALIVAQHRDRSNVLSGIKMAALEEGLKKIFLAAKKKKASVHLPRIGHATKGFNWYGTERLIRKHLAARGIPTYIYYFPRSKSAVLHSQSSSSSSRQLVP
2 | – | 14 | 94 | FLAG-HPF1 (amino acids 27-346) (natural protein) KFCEADVSSDLRKEVENHYKLSLPEDFYHFWKFCEELDPEKPSDSLSASLGLQLVGPYDILAGKHKTKKKSTGLNFNLHWRFYYDPPEFQTIIIGDNKTQYHMGYFRDSPDEFPVYVGINEAKKNCIIVPNGDNVFAAVKLFLTKKLREITDKKKINLLKNIDEKLTEAARELGYSLEQRTVKMKQRDKKVVTKTFHGAGLVVPVDKNDVGYRELPETDADLKRICKTIVEAASDEERLKAFAPIQEMMTFVQFANDECDYGMGLELGMDLFCYGSHYFHKVAGQLLPLAYNLLKRNLFAEIIEEHLANRSQENIDQLAA
